In the DeepSol protein solubility set:

Experiment: soluble on expression in E. coli; label from the status in PepcDB or PDB records

| Sequence | soluble on expression in E. coli |
| --- | --- |
| KKMAFTLADRVTEEMLADKAALVVEVVEENYHDAPIVGIAVVNEHGRFFLRPETALADPQFVAWLGDETKKKSMFDSKRAAVALKWKGIELCGVSFDLLLAAYLLDPAQGVDDVAAAAKMKQYEAVRPDEAVYGKGAKRAVPDEPVLAEHLVRKAAAIWELERPFLDELRRNEQDRLLVELEQPLSSILAEMEFAGVKVDTKRLEQMGKELAEQLGTVEQRIYELAGQEFNINSPKQLGVILFEKLQLPVLKKTKTGYSTSADVLEKLAPYHEIVENILHYRQLGKLQSTYIEGLLKVVRPATKKVHTIFNQALTQTGRLSSTEPNLQNIPIRLEEGRKIRQAFVPSESDWLIFAADYSQIELRVLAHIAEDDNLMEAFRRDLDIHTKTAMDIFQVSEDEVTPNMRRQAKAVNYGIVYGISDYGLAQNLNISRKEAAEFIERYFESFPGVKRYMENIVQEAKQKGYVTTLLHRRRYLPDITSRNFNVRSFAERMAMNTPIQGSAADIIKKAMIDLNARLKEERLQAHLLLQVHDELILEAPKEEMERLCRLVPEVMEQAVTLRVPLKVDYHYGSTWYDAK | soluble |
| ANIIANTSLTIGPSKLDVAKITPELLASLNEVGGSEANVATGYHAIEFLLWGQDLNGTNAGAGKRAYTDFVVGSGCTNGHCDRRGEYLKAAADLLVQDLEWMEKQWSADEKGNYRQELLTGSAENGLRKMLFGMGSLSLGELAGERMKVALEANSTEDEHDCFSDNTHNSHYYNEQGIYNVYTGTYSRQDGTVLTGPSIANLVAQEDKKAAEEIQKQFDATRSQVGELVTSAEKHNQHFDQLIAAGNAQGNALVNDTIMALVAQTGAIERAAGIVGIDSLSPDTADHEF | not soluble |
| MSQFGATAIGIANIAMNGEVLDTWYPTPELVPASTSPSYSERLGAQDLPPKLLSLVRLDEDRLVEQVAVRTYIGDLDTPPIDAHDVFLRLHLLSHRLVRPLEINMDNAMSILSRVVWTNKGPCLPENFENIRMSLRNRGLIHVYGIDRLPRMVDYVVPTGVEITEAERVRLGAYLAEGTKVLREGYVSFNAGTLGAGRIEGRLYSGTVVGDNVDLGISASIVPDKPHAQLRVGANCVFGLGSAVMGINLGDNVRVGNNVVIDKETMVYFADRDITAAAAILDGQSDWQIHAESGRPEPVVRPT | soluble |
| MKVRHPFKVVVVTGVPGVGKTTVIKELQGLAEKEGVKLHIVNFGSFMLDTAVKLGLVEDRDKIRTLPLRRQLELQREAAKRIVAEASKALGGDGVLIIDTHALVKTVAGYWPGLPKHVLDELKPDMIAVVEASPEEVAARQARDTTRYRVDIGGVEGVKRLMENARAASIASAIQYASTVAIVENREGEAAKAAEELLRLIKNL | soluble |
| TFGEEESEACKKAFDLSPFPLLSKQKEAVFTAIESSISAIIGGAGTGKTTVLHAVLTAFEALGYVSDASLCPDKTTTNHNIKTMALSCRAAKRMRDCINKSSDGSRRERQISATSIAQFIHQTVIEDAEGKYLVVIDEASMLDVATMYNIITNIHPNVRILLVGDHYQLPPI | not soluble |
| MGSDKIHHHHHHMTTHSHTLTIAGQPLHYTDQGQGNTLVFIHGLLGNKVQWQSQIDALKANYRCIAIDLWGHGDSQTMPENTANLKDIASQLLSMLTALNINSCSLISLGTGCAIASEMALLSPKNINALVMINGFIGFEPEVNCVKYQGMLDEVQLNNGISTALAKQIATLFFNTQAQKTAVKTDTVTNAVTNEIESASVDSQISDKAMAALAQQLTEINAVQLSALVKFVPMAIYKRDTLEDVERFCLPSLILASNNNKLRTPLEAYLMQDTLDGSQLTQIPNAGHWVHLEQAEQLKQLISQFLQQH | not soluble |
| MTVANWQVRDLTLILRTGEMQSRLEQARTDFGALLPETVYFQPSAIRLGEFDDEYILTRQELVYVYLREDIARQCALRRHLPSNSSNSGIMATAIPPWLMDARRLNRVMQERCDQGGLVHYYQGPHTNQFFLAIMPSNCFVRFGTDVINNENYGFYARGGNYTEEGEDDDDEMDDEDETGGAETRDSQTGNLINYPIIALGSCHLSALEHHHHHH | not soluble |
| MPAHQLSDDRAIQGTFMRKRRDSLASVVARDLAGRIERGDYAVGDKIPIEAQLCEMYNVSRTVVREAIATLRSEGLVTSRHGVGVFVEERGNPALSITREAAGELSEVLELLELRLGVEVEAAGLAARRATAEDLRQIREVLEKTDDLEAFAEHRRELDYAFHLAIARASGNSWMPKFMDFIGPVIIPRSQLLHDPQSGITGDYLRQMVEEHRQIVEAIAAGEAAAAQEAMRMHLSTSLERYRRRLTDA | not soluble |
| MFTQQRLRPNTQELLKETNHLCEAFAISESILARYQRNNRQLSESEKKAFASLLLRVPHDFLTETVASLGTSKTSSIGPTTDLGSLIDNVFGFGKPLKDVFQLLNQELGNCLNSPRCRVYYLDPTDNLLKDPVYATASTLDETTPLGKAVLTGIQREIAGTLYLPLSFEGKVIACVESAWGSPEKGDKRRIKETLQFVACAMHNAIESERLRWNKEKAEAMLEMATQLARDNLDEAVLANSIMNTAKVLTESDRCSIFLVKDDTLEAHFEDGNIVAIPIATGIAGYVAQTGQTVKISDAYSDDRFNREVDKATGYRTKTILCMPVTYEGSIVAVAQLINKLDMVTESGLRLPRTFGKRDEELFQTFSMFAGASLRNCRINEKLINEKRKSDAILDVVTLLSNTDIRDVDGIVRHVLHGAKRLLYADRSALFLVDKERNELYSRIADSVAGKEIRFPCGQGIAGIVASTGIGENILDAYQDPRFNREVDKQLGYRTQTLLCEPIVLNGEILAVVQLVNKLNEAGEVTVFTESDRETFRVFSLFAGISINNSHLLEFAVKAGREMMELNENRALAGGRTGSLRNIKRPLAITEAERQAVRDINLAHLDITSIDFDLFYLRENMELPLDAAAAVAYRLIVGTGLPQKFRCRDDTLLNFILQCRKKYRNVPYHNFYHVVDVCQTVYTFLYKGAVCEKLTELDCFVLLVTALVHDLDHMGLNNSFYLKTDSPLGILSSASGNASVLEVHHCNLAVEILSDPDSDVFEGLDAADRTLAYRSMIDCVLATDMAKHGKSLESFLSVLGNPETSEQRIAELTMQIVLKAGDVSNVTKPFDISRLWAMAVTEEFYRQGDMEKEKGVEVLPMFDRSKNTELAKGQIGFIDFVAGPFFKKIVSASLTGMQWTVERVESNRLEWQRSLDAK | not soluble |
| MIMKKEKTYSRAPLPFVGQKRMFVSEFKKILKHFDDKTIFVDLFGGSGLLSHITKRERPDAVVIYNDHDNYRERLENIDRTNTLLRDLRKIVGIYPRHQKITGKMREAFLERIRLEETTGFVDYLTLSTSLLFSGKYAQNMEELEGLYFYNKIRQSDYRCDGYLDGLEVVCYDYKELADTYGVFPGVVFLVDPPYMGTDISTYKMDWKLADYLDVLLVLKGH | not soluble |
| AALVSISVSPTNSTVAKGLQENFKATGIFTDNSNSDITDQVTWDSSNTDILSISNASDSHGLASTLNQGNVKVTASIGGIQGSTDFKVTQAALTSIEVSPTRTSIAKGLTQKFTAIGIFTDNSKKDITDQVTWNSSSAIVSVSNLDNNKGLGKTNSVGNTTITATLGKVSGNTWFTVVPAVLTSIQINPVNPSLAKGLTQKFTATGIYSDNSNKDITSAVTWFSSDSSIATISNAQKNQGNAYGAATGATDIKATFGKVSSPVSTLSVTAAKLVEIQITPAAASKAKGLTERFKATGIFTDNSNSDITNQVTWNSSNTDIAEIKNTSGSKGITNTLTPGSSEISAALGSIKSSKVILKV | not soluble |
| MASVGIFFGSDTGNTEAIAKMIQKQLGKKLVHVQDIAKSSKEDINNFDLLLLGIPTWYYGEAQCDWDDFFPELEAIDFSTKLVAIFGCGDQEDYAEYFCDAMGTVRDIIQAKGATIVGHWPTEGYEFEASKALVDENHFVGLCIDEDRQPELTEQRVTKWVNQVYEEMCLAELED | not soluble |
| SAPGWLKEMRGEHIPETEEYGISSFSFLARRPFHPEKFYHFLHDTEKFGKLIRSKGYFWLATRPQFSGQWNQAGGIAHYGFAAMFWKSVPKKDWPIDEESLNAIEKQWVEPFGDMRQELVFIGQQLDQGAMTNALNECLL | not soluble |
| MIYSIPFLFFIIVSCSNSSTEMVAKSKYDAKIAEYKELNEQQAAVIEDNLEKSKIINNVVTELNQIAGNTHSLRVNVEHGVGELSQAEEINQKLQTLKKRLSAVEGKRSDGSKNLLATMDKLKSIIEQKEIEINNLKQEIANQQQTIANQKNTIASQQVTIDAQSQELMNKQQEMWYKLGTELHSVVEELPKVKGRKDKRNIKNTRYYILNKAKECFEHAAQLGHSLAGSKARQVEGEMSRL | not soluble |
| MSCRKSAPDQCSIWQSEIGVFKMFITMNRLLRLQIMIPELFLYNETHQGLNNQNVHAVGAYFDQHDPEGLQQVVPLLNEAAANQDVVVIDSMASLVDLYTMDSRGLHEICDLATPFFQLLAHPRISMEVKLLINRLKGVLLTRDAAILQLIIQVYENIAEGDQEAEEADERVKALLAERFGNDI | not soluble |
| MEATGLITEYNPFHNGHLYHLKKAQELTKADVTIVLMSGNWVQRGLPAITDKWKRAQAAIDAGADLVFELPFYYAVQAGEIFAQGAVRLLSDLQVSSIICGSEHADIDFINLAAHEPDISGNSNFDKKNRTFASNYAAALEEKTGFYLENANDILAFSYAKAILNQNLTEKIKLRTISRVSADYHDQFLNDGEIASATAIRKALSEGQNVDSYTPMSDLQY | not soluble |
| AEAAAAQAPAAGPGQMSFTFASPTQVFFNSANVRQVDVPTQTGAFGILAAHVPTLQVLRPGLVVVHAEDGTTSKYFVSSGSVTVNADSSVQLLAEEAVTLDMLDLGAAKANLEKAQSELLGAADEATRAEIQIRIEANEALVKALE | soluble |
| MDPIKQEISEYFKDWMELYKKNAIDEMTYKGYEQTLKYLKTYMPNVLISEITASSYQRALNKFAETHAKASTKGFHTRVRASIQPLIEEGRLQKDFTTRAVVKGLEHHHHHH | soluble |
| NKDMALTVRGNFTHAENEVIYWEQSGVNYPYQSNSGVPYKVQRGLIALGLFKDEDDIKSSPKQTFMDNYRPGDIKYKDVNGDGKIDKDDVVPLNYSAVPFIQYGFALDWNYKAFRVSILFEGVSKVQYFQGGRGFYPFLNESRGNLLEMVADPRNRWIPREYAEVNGIDPALAENPNAKFPRLTYGENKNNNQESTFWLADGKYLRLKNVDVSYRFTNNWLKSRVGVESATLSLIGENLHVWDKVKLFDPSQASGNGAEYPLQRMYTLQLNLTF | not soluble |
| MGSDKIHHHHHHMRVNSQSNHDVSPAPSGVVLEAADPAELLVRAQKTLGLLSPLLSPLAQAFHDRGHRLYLVGGSVRDALLDELGHDLDCTTDARPEVVSAILEEYAPVVWDTGIEFGTVSAEKDGQQIEITTFRSDVYDGQSRNPEVQFGDTLEGDLIRRDFTVNAMAMEILPDGSMQFHDPVGGMNDLVAGLLDTPATPQQSFNDDPLRMLRAARFVSQLGFDLAPRVRHAMTEMADQITRITAERVQVELDKMICGKVPWDGIDVMVDTGLADIIYPEISALRLTQDEHHQHKDVYAHSLTVLRQAMDQEEDGPDVVLRWAALMHDCGKPDTREFSPEGRVSFHQHEIVGARLMRHRMRALKYSKHTIRDVSELIRLHMRFHGFSEGEWTDSAVRRYVTDAGDLLPRLHKLVRADCTTRNKKKAERLQKTYDHLEDRIADIAAKEDLAKVRPDLDGNEIMEILDIKAGPQVGQAWKFLKELRLERGPLEREDAILELKKWWYEQ | not soluble |
| MGLELFLDLVSQPSRAVYIFAKKNGIPLELRTVDLVKGQHKSKEFLQINSLGKLPTLKDGDFILTESSAILIYLSCKYQTPDHWYPSDLQARARVHEYLGWHADCIRGTFGIPLWVQVLGPLIGVQVPEEKVERNRTAMDQALQWLEDKFLGDRPFLAGQQVTLADLMALEELMQPVALGYELFEGRPRLAAWRGRVEAFLGAELCQEAHSIILSILEQAAKKTLPTPSPEAYQAMLLRIARIP | soluble |
| KARLIYNPTSGQEIMKKNVAEVLDILEGFGYETSAFQTTPTKNSARDEATRAAQAGFDLIVAAGGDGTINEVVNGIAPLKRRPKMAIIPTGTTNDFARALKIPRGNPIEATKLIGKNQIVKMDIGQAQED | not soluble |
